The values that follow are results of earlier work, collected in publication PMC9010944.

By pKd is commonly meant the negative decadic logarithm of the Kd, by convention in mol/L.

pKd: −log10 of the molar value.

For the data set, the target named is PDGF-BB (Homo sapiens) (UniProt P01127).
PDGF-BB (Homo sapiens), sequence (P01127 82-190): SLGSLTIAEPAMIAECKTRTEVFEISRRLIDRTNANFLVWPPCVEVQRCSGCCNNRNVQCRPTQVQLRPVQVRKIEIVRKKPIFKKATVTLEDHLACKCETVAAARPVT

Perlecan domain III-2, sequence (P98160 924-1324): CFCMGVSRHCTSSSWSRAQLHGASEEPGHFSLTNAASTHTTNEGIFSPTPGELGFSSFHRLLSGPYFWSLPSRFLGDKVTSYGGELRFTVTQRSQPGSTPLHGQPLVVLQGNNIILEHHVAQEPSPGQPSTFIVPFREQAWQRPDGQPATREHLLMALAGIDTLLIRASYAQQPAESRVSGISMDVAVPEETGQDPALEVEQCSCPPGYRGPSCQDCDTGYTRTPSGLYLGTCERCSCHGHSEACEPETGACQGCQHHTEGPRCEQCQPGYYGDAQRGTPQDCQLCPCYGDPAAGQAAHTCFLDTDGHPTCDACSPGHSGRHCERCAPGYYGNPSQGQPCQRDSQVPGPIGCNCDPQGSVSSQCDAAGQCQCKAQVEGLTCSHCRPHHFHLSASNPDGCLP

In the case of “Perlecan domain III-2 (from UniProt P98160)”, the pKd is 8.10.
